Data on two molecules can be found in PMC7642414, “R-spondins are BMP receptor antagonists in Xenopus early embryonic development” (Nature Communications, 2020).

Experiment [1] addresses T1, recombinant human RSPO2 (human, UniProt Q6UXX9 22-243).
T1 construct: R-spondin 2, human, recombinant protein; source: bought: Peprotech 120-43
As to the kind of experiment: solid-phase in vitro binding assay (AP fusion read-out); ternary complex: recombinant RSPO protein on plate-coated ZNRF3 Fc chimera (4-6 h), read out through BMPR1A^ECD-AP. The following applies: both partners purified.

The target of the next experiment is T2, recombinant human RSPO3 (human, UniProt Q9BXY4 22-272).
T2 construct: R-spondin 3, human, recombinant protein; source: bought: Peprotech 120-44
T2 sequence (looked up): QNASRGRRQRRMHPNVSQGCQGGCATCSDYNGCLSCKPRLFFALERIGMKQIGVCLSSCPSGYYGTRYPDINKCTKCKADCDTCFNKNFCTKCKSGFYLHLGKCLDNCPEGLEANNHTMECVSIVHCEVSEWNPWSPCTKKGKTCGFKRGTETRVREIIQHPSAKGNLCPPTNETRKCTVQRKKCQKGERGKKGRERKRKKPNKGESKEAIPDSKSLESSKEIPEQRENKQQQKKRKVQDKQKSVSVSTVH
The experiment is described as above. To be noted: both partners purified.

The target of experiment [2] is T1, recombinant human RSPO2. As to the kind of experiment: solid-phase in vitro binding assay (AP fusion read-out); Scatchard plot; RSPO2 recombinant protein (Peprotech 120-43) and BMPR1A^ECD-AP. The following applies: one partner purified.

T1 sequence (Q6UXX9 22-243): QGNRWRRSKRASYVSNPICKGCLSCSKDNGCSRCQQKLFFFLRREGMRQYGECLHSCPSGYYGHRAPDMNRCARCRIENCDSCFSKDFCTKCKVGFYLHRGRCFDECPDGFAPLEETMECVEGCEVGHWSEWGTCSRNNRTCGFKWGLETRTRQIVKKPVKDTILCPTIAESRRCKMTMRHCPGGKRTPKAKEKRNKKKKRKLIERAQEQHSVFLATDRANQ

B1: recombinant human ZNRF3 Fc Chimera protein (Fc fusion, UniProt Q9ULT6 56-219, looked up)
chain: KETAFVEVVLFESSPSGDYTTYTTGLTGRFSRAGATLSAEGEIVQMHPLGLCNNNDEEDLYEYGWVGVVKLEQPELDPKPCLTVLGKAKRAVQRGATAVIFDVSENPEAIDQLNQGSEDPLKRPVVYVKGADAIKLMNIVNKQKVARARIQHRPPRQPTEYFDM
notes: Zinc and ring finger 3 (ZNRF3), human, as Fc chimera; source: bought: R&D systems 7994-RF
As for B1, the binding result in the experiment with recombinant human RSPO2 [1] and in the experiment with recombinant human RSPO3 was “binds” in each case.

B2: BMPR1A^ECD-AP (domain or fragment, human, UniProt P36894 24-152, looked up)
chain: QNLDSMLHGTGMKSDSDQKKSENGVTLAPEDTLPFLKCYCSGHCPDDAINNTCITNGHCFAIIEEDDQGETTLASGCMKYEGSDFQCKDSPKAQLRRTIECCRTNLCNQYLQPTLPPVVIGPFFDGSIR
notes: Extracellular domain of BMPR1A/ALK3; also called extracellular domain of BMPR1A; source: HEK293T, transiently transfected, conditioned medium
As for B2, in the experiment with recombinant human RSPO2 [2], the Kd was about 4.8 nM.
